Positions count from the first letter of the chain named.
B1: Compound 5.4: FGF21K122C mutant (SEQ NO: 8) modified by the albumin-binding agent of Example 2.1 (conjugate)
chain: HPIPDSSPLLQFGGQVRQRYLYTDDAQQTEAHLEIREDGTVGGAADQSPESLLQLKALKPGVIQILGVKTSRFLCQRPDGALYGSLHFDPEACSFRERLLEDGYNVYQSEAHGLPLHLPGNCSPHRDPAPRGPARFLPLPGLPPAPPEPPGILAPQPPDVGSSDPLSMVGGSQGRSPSYES
modifications: albumin-binding agent of Example 2.1
B2: Compound 5.14: FGF21K122C mutant (SEQ NO: 8) modified by the albumin-binding agent of Example 2.4 (conjugate)
chain: B1 chain
modifications: albumin-binding agent of Example 2.4
B3: Compound 5.1: FGF21E30C mutant (SEQ NO: 5) modified by the albumin-binding agent of Example 2.1 (conjugate)
chain: B1 chain with E30C, C122K
modifications: albumin-binding agent of Example 2.1
B4: Compound 5.5: FGF21H125C mutant (SEQ NO: 9) modified by the albumin-binding agent of Example 2.1 (conjugate)
chain: B1 chain with C122K, H125C
modifications: albumin-binding agent of Example 2.1
B5: Compound 5.9: FGF21H125C mutant (SEQ NO: 9) modified by the albumin-binding agent of Example 2.2 (conjugate)
chain: B1 chain with C122K, H125C
modifications: albumin-binding agent conjugated
B6: Compound 5.13: FGF21D46C mutant (SEQ NO: 7) modified by the albumin-binding agent of Example 2.4 (conjugate)
chain: B1 chain with D46C, C122K
modifications: albumin-binding agent of Example 2.4
B7: Compound 5.12: FGF21H125C mutant (SEQ NO: 9) modified by the albumin-binding agent of Example 2.3 (conjugate)
chain: B1 chain with C122K, H125C
modifications: albumin-binding agent of Example 2.3
B8: Compound 5.3: FGF21D46C mutant (SEQ NO: 7) modified by the albumin-binding agent of Example 2.1 (conjugate)
chain: B1 chain with D46C, C122K
modifications: albumin-binding agent of Example 2.1
B9: Compound 5.6: FGF21D38C mutant (SEQ NO: 6) modified by the albumin-binding agent of Example 2.2 (conjugate)
chain: B1 chain with D38C, C122K
modifications: albumin-binding agent conjugated
B10: Compound 5.2: FGF21D38C mutant (SEQ NO: 6) modified by the albumin-binding agent of Example 2.1 (conjugate)
chain: B1 chain with D38C, C122K
modifications: albumin-binding agent of Example 2.1
B11: Compound 5.8: FGF21K122C mutant (SEQ NO: 8) modified by the albumin-binding agent of Example 2.2 (conjugate)
chain: B1 chain
modifications: albumin-binding agent conjugated
B12: Compound 5.10: FGF21D46C mutant (SEQ NO: 7) modified by the albumin-binding agent of Example 2.3 (conjugate)
chain: B1 chain with D46C, C122K
modifications: albumin-binding agent of Example 2.3
B13: Compound 5.11: FGF21K122C mutant (SEQ NO: 8) modified by the albumin-binding agent of Example 2.3 (conjugate)
chain: B1 chain
modifications: albumin-binding agent of Example 2.3
B14: Compound 10.3: PAS-FGF21 dimer: PAS50FGF21 (SEQ ID NO: 15) modified by the side chain of Example 8.3 (conjugate)
chain: SPCASPAAPAPASPAAPAPSAPAAASAAAPAAASAAASAPSAASAAASPAAHPIPDSSPLLQFGGQVRQRYLYTDDAQQTEAHLEIREDGTVGGAADQSPESLLQLKALKPGVIQILGVKTSRFLCQRPDGALYGSLHFDPEACSFRERLLEDGYNVYQSEAHGLPLHLPGNKSPHRDPAPRGPARFLPLPGLPPAPPEPPGILAPQPPDVGSSDPLSMVGGSQGRSPSYES
modifications: dimer; side chain of Example 8.3
B15: Compound 10.1: PAS-FGF21 dimer: PAS15FGF21 (SEQ ID NO: 13) modified by the side chain of Example 8.3 (conjugate)
chain: SPCASPAAPAPASPAAHPIPDSSPLLQFGGQVRQRYLYTDDAQQTEAHLEIREDGTVGGAADQSPESLLQLKALKPGVIQILGVKTSRFLCQRPDGALYGSLHFDPEACSFRERLLEDGYNVYQSEAHGLPLHLPGNKSPHRDPAPRGPARFLPLPGLPPAPPEPPGILAPQPPDVGSSDPLSMVGGSQGRSPSYES
modifications: dimer; side chain of Example 8.3
B16: Compound 10.2: PAS-FGF21 dimer: PAS30FGF21 (SEQ ID NO: 14) modified by the side chain of Example 8.3 (conjugate)
chain: SPCASPAAPAPASPAAPAPSAPAAASAAAPAHPIPDSSPLLQFGGQVRQRYLYTDDAQQTEAHLEIREDGTVGGAADQSPESLLQLKALKPGVIQILGVKTSRFLCQRPDGALYGSLHFDPEACSFRERLLEDGYNVYQSEAHGLPLHLPGNKSPHRDPAPRGPARFLPLPGLPPAPPEPPGILAPQPPDVGSSDPLSMVGGSQGRSPSYES
modifications: dimer; side chain of Example 8.3
B17: Compound 10.5: PAS-FGF21 dimer: PAS200FGF21 (SEQ ID NO: 17) modified by the side chain of Example 8.3 (conjugate)
chain: SPCASPAAPAPASPAAPAPSAPAAASAAAPAAASAAASAPSAASAAASPAAPSAPPAAASPAAPSAPPAAASPAAPAPASPAASAPSAPAAASPAAPAPASPAAPAPSAPAAASAAAPAAASAAASAPSASAAASAAAPAAASAAASAPSAASSAASPAAPSAPPAAASPAAPSAPPAAASPAAPAPASPAAPAPSAPAAAHPIPDSSPLLQFGGQVRQRYLYTDDAQQTEAHLEIREDGTVGGAADQSPESLLQLKALKPGVIQILGVKTSRFLCQRPDGALYGSLHFDPEACSFRERLLEDGYNVYQSEAHGLPLHLPGNKSPHRDPAPRGPARFLPLPGLPPAPPEPPGILAPQPPDVGSSDPLSMVGGSQGRSPSYES
modifications: dimer; side chain of Example 8.3
B18: Compound 10.4: PAS-FGF21 dimer: PAS100FGF21 (SEQ ID NO: 16) modified by the side chain of Example 8.3 (conjugate)
chain: SPCASPAAPAPASPAAPAPSAPAAASAAAPAAASAAASAPSAASAAASPAAPSAPPAAASPAAPSAPPAAASPAAPAPASPAASAPSAPAAASPAAPAPASHPIPDSSPLLQFGGQVRQRYLYTDDAQQTEAHLEIREDGTVGGAADQSPESLLQLKALKPGVIQILGVKTSRFLCQRPDGALYGSLHFDPEACSFRERLLEDGYNVYQSEAHGLPLHLPGNKSPHRDPAPRGPARFLPLPGLPPAPPEPPGILAPQPPDVGSSDPLSMVGGSQGRSPSYES
modifications: dimer; side chain of Example 8.3
B19: Compound 12.5: Fatty acid-modified PAS-FGF21 dimer: PAS200FGF21 (SEQ ID NO: 17) modified by the side chain of Example 8.5 (conjugate)
chain: B17 chain
modifications: dimer; fatty acid side chain of Example 8.5

These molecules were tested against T1, FGFR1c and the cofactor β-Klotho (Homo sapiens, UniProt P11362+Q86Z14) (assay: dual-luciferase reporter gene assay in iLite FGF21 assay ready cells). Conditions: Example 6, four-parameter fitting.
T1 construct: host or cells: iLite FGF21 assay ready cells (genetically engineered reporter gene cell line)
Type: cell-based
Text: iLite FGF21 assay ready cells (purchased from SAVR) is a genetically engineered reporter gene cell line that responds to signals downstream to FGF21 agonism through the expression of firefly luciferase. The receptor FGFR1c and the cofactor β-Klotho were co-overexpressed on the surface of iLite FGF21 assay ready cells and have undergone genetic optimization to enhance sensitivity, such that FGF21 will cause an increase in luciferase expression in a dose-response manner. The luciferase activity detection kit was purchased from Promega (catalog number #E2980).
iLite FGF21 assay ready cells were cultured adherently in basal medium (DMEM Gluta Max, purchased from Gibco) containing 10% fetal bovine serum (FBS, purchased from Gibco) and 1% penicillin/streptomycin (purchased from Gibco). For the activity determination experiment, […] cells per well and test samples such as FGF21 mutant proteins and FGF21 conjugate molecules modified with albumin-binding agent were added to all-white 96-well culture plates (purchased from Corning), and the chemiluminescence values were detected in a microplate reader according to the instructions of the luciferase activity detection kit. Finally, the half-maximal effective concentration (EC50) values of the tested samples were obtained by means of four-parameter fitting.

T1 sequence (P11362 22-822): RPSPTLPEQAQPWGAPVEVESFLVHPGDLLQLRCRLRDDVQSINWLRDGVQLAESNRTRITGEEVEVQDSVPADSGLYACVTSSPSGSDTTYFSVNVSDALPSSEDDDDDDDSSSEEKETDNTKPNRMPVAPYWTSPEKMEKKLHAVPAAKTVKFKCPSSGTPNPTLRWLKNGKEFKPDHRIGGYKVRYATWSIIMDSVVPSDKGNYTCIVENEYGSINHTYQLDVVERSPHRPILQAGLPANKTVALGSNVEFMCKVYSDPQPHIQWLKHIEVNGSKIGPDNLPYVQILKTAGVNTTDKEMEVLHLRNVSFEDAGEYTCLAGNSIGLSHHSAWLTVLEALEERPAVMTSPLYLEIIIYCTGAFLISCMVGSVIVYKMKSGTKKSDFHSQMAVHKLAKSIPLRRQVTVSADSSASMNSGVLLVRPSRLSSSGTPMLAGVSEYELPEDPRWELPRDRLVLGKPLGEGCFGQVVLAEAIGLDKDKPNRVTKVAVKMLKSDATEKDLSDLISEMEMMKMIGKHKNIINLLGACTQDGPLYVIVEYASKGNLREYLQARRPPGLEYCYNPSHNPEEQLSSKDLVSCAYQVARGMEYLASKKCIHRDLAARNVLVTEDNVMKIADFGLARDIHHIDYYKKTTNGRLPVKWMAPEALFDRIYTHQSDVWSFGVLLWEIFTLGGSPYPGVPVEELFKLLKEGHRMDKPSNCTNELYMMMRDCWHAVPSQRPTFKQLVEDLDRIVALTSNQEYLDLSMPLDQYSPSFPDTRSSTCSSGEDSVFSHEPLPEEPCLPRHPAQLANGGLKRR
T1 sequence (Q86Z14 whole entry): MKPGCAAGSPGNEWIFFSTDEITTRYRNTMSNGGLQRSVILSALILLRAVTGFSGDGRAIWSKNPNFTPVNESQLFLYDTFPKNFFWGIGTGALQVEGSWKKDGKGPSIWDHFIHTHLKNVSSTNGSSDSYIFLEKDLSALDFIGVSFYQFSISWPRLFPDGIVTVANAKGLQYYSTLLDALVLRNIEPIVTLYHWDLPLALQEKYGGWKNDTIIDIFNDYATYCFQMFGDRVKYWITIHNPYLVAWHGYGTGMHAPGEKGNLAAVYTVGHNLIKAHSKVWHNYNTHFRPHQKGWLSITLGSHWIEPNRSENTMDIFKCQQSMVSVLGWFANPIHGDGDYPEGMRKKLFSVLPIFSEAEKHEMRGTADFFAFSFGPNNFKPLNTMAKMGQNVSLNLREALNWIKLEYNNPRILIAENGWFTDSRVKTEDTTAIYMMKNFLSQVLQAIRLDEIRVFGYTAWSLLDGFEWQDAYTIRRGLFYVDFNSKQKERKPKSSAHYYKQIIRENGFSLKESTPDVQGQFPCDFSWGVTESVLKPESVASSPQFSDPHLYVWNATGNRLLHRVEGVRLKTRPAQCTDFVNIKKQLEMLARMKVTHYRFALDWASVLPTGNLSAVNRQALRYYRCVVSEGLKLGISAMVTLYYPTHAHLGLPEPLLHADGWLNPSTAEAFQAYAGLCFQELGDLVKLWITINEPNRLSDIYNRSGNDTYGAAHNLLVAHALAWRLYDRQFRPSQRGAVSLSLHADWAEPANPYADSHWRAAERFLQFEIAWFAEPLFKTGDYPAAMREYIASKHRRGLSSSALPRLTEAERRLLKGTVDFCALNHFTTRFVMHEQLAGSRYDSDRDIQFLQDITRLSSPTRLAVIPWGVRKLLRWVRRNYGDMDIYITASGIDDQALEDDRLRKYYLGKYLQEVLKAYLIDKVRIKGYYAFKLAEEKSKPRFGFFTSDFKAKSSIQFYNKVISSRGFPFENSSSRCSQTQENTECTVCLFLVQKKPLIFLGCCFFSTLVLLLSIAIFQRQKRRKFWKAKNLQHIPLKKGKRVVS

EC50 [nM]	Molecule
0.99	B1
1.02	B2
4.61	B3
0.52	B4
1.18	B5
1.84	B6
1.4	B7
0.24	B8
2.06	B9
1.99	B10
1.13	B11
2.69	B12
2.09	B13

Same assay, conditions: Example 11, four-parameter fitting

EC50 [nM]	Molecule
0.02	B14
0.07	B15
0.04	B16
0.15	B17
0.13	B18

Same assay, conditions: Example 13, four-parameter fitting

EC50 [nM]	Molecule
0.09	B19
